Laboratory results: article PMC5226681

Columns and labels:
[1] = TZM-bl pseudovirus neutralization; settings: glycan lost; control: wild-type CAP45
[2] = TZM-bl pseudovirus neutralization, plateau; settings: control: CAP45 pseudovirus grown normally in 293T

Substance | other: neutralisation sensitivity [1] | other: neutralisation sensitivity ([2]; glycan changed form) | further results
HIV-1 envelope glycoprotein (Env, gp160) CAP45: N276A | abolishes |  | 
HIV-1 envelope glycoprotein (Env, gp160) CAP45: N276D | decreases |  | 
HIV-1 envelope glycoprotein (Env, gp160) CAP45: N230D | no change |  | 
HIV-1 envelope glycoprotein (Env, gp160) CAP45: N611D | decreases |  | 
HIV-1 envelope glycoprotein (Env, gp160) CAP45: swainsonine |  | no change | 
HIV-1 envelope glycoprotein (Env, gp160) CAP45: benzyl 2-acetamido-2-deoxy-α-D-galactopyranoside |  |  | other: neutralisation sensitivity ([2]; glycan lost): no change
HIV-1 envelope glycoprotein (Env, gp160) CAP45: kifunensine |  | no change | 
HIV-1 envelope glycoprotein (Env, gp160) CAP45: 293S GnTI(-/-) cells |  | no change | 
